Laboratory results from patent US20230140293A1.

Key:
[1] = biological target: CH505 TF chimeric SOSIP.III trimer (CH505TFchim.6R.SOSIP.664V4.1) (HIV-1 (CH505 gp120 / BG505 gp41 chimera)); assay: negative stain EM; 1 to 1 ratio of CH103 and gp140
[2] = biological target: CH505 transmitted/founder (TF) gp120 (HIV-1); assay: ELISA, gp120 on plate
CH505 M11 gp120 (HIV-1) = assay: ELISA, gp120 on plate
[3] = biological target: CH505 w020.14 gp120 (HIV-1); assay: ELISA, gp120 on plate
[4] = biological target: CH505 TF chimeric SOSIP.III trimer (CH505TFchim.6R.SOSIP.664V4.1) (HIV-1 (CH505 gp120 / BG505 gp41 chimera)); assay: kinetics, method not named (FIG. 69); reference CH505 TF gp120
[5] = biological target: CH505 transmitted/founder (TF) gp120 (HIV-1); assay: SPR
[6] = biological target: HIV-1 Env 426c.TM (N276D.N460D.N463D), Env-pseudotyped virus produced in 293T cells (HIV-1 clade C strain 426c); assay: cell-based or functional assay
[7] = biological target: HIV-1 Env 426c.DM (N460D.N463D), Env-pseudotyped virus produced in 293T cells (HIV-1 clade C strain 426c); assay: cell-based or functional assay
[8] = biological target: CH0505TF.G458Y Env, Env-pseudotyped virus produced in 293T cells (HIV-1); assay: cell-based or functional assay
[9] = biological target: CH0505TF Env, pseudotyped virus produced in 293S GnTI- cells (HIV-1); assay: cell-based or functional assay
[10] = biological target: HIV-1 Env 426c.TM (N276D.N460D.N463D), Env-pseudotyped virus produced in 293S GnTI- cells (Man5-enriched) (HIV-1 clade C strain 426c); assay: cell-based or functional assay
[11] = biological target: CH0505TF.gly3.197 Env, Env-pseudotyped virus produced in 293T cells (HIV-1); assay: cell-based or functional assay
[12] = biological target: HIV-1 Env 426c.TM4 (S278R.G471S.N460D.N463D), Env-pseudotyped virus produced in 293T cells (HIV-1 clade C strain 426c); assay: cell-based or functional assay
[13] = biological target: HIV-1 Env 426c.SM (N276D), Env-pseudotyped virus produced in 293T cells (HIV-1 clade C strain 426c); assay: cell-based or functional assay
[14] = biological target: CH0505TF.gly3.276 Env, Env-pseudotyped virus produced in 293T cells (HIV-1); assay: cell-based or functional assay
[15] = biological target: HIV-1 Env 426c, Env-pseudotyped virus produced in 293S GnTI- cells (Man5-enriched) (HIV-1 clade C strain 426c); assay: cell-based or functional assay
[16] = biological target: HIV-1 Env 426c.TM4 (S278R.G471S.N460D.N463D), Env-pseudotyped virus produced in 293S GnTI- cells (Man5-enriched) (HIV-1 clade C strain 426c); assay: cell-based or functional assay
[17] = biological target: CH0505TF.gly3.461 Env, Env-pseudotyped virus produced in 293T cells (HIV-1); assay: cell-based or functional assay
[18] = biological target: HIV-1 Env 426c.SM (N276D), Env-pseudotyped virus produced in 293S GnTI- cells (Man5-enriched) (HIV-1 clade C strain 426c); assay: cell-based or functional assay
[19] = biological target: CH0505TF.gly4.G458Y Env, pseudotyped virus produced in 293S GnTI- cells (HIV-1); assay: cell-based or functional assay
[20] = biological target: CH0505TF.gly3.461 Env, pseudotyped virus produced in 293S GnTI- cells (HIV-1); assay: cell-based or functional assay
[21] = biological target: HIV-1 Env 426c.DM (N460D.N463D), Env-pseudotyped virus produced in 293S GnTI- cells (Man5-enriched) (HIV-1 clade C strain 426c); assay: cell-based or functional assay
[22] = biological target: CH0505TF.G458Y Env, pseudotyped virus produced in 293S GnTI- cells (HIV-1); assay: cell-based or functional assay
[23] = biological target: CH0505TF Env, Env-pseudotyped virus produced in 293T cells (HIV-1); assay: cell-based or functional assay
[24] = biological target: CH0505TF.gly4.G458Y Env, pseudotyped virus produced in 293T cells (HIV-1); assay: cell-based or functional assay
[25] = biological target: CH0505TF.gly3.276 Env, pseudotyped virus produced in 293S GnTI- cells (HIV-1); assay: cell-based or functional assay
[26] = biological target: CH0505TF.gly3.197 Env, pseudotyped virus produced in 293S GnTI- cells (HIV-1); assay: cell-based or functional assay
[27] = biological target: CH0505TF.gly4 Env, pseudotyped virus produced in 293S GnTI- cells (HIV-1); assay: cell-based or functional assay
[28] = biological target: CH0505TF.gly4 Env, Env-pseudotyped virus produced in 293T cells (HIV-1); assay: cell-based or functional assay
[29] = biological target: CH0505.w4.3 Env, pseudotyped virus produced in 293S GnTI- cells (HIV-1); assay: cell-based or functional assay
[30] = biological target: HIV-1 Env 426c, Env-pseudotyped virus produced in 293T cells (HIV-1 clade C strain 426c); assay: cell-based or functional assay
[31] = biological target: CH0505.w4.3 Env, Env-pseudotyped virus produced in 293T cells (HIV-1); assay: cell-based or functional assay
[32] = biological target: HIV-1 CH0505TF.N280D Env on Env-pseudotyped virus produced in 293T cells (HIV-1); assay: cell-based or functional assay
[33] = biological target: HIV-1 CH0505TF.G458Y Env on Env-pseudotyped virus produced in 293T cells (HIV-1); assay: cell-based or functional assay
[34] = biological target: HIV-1 CH0505TF.N280D Env on Env-pseudotyped virus produced in 293S GnTI- cells (HIV-1); assay: cell-based or functional assay
[35] = biological target: HIV-1 CH0505TF.S365P Env on Env-pseudotyped virus produced in 293T cells (HIV-1); assay: cell-based or functional assay
[36] = biological target: HIV-1 CH0505TF.S365P Env on Env-pseudotyped virus produced in 293S GnTI- cells (HIV-1); assay: cell-based or functional assay
[37] = biological target: HIV-1 CH0505TF Env on Env-pseudotyped virus produced in 293S/GnTI-/- cells (Man5-enrichment) (HIV-1); assay: cell-based or functional assay
[38] = biological target: HIV-1 CH0505TF (CH505 transmitted/founder) Env on Env-pseudotyped virus produced in 293T cells (HIV-1); assay: cell-based or functional assay
[39] = biological target: HIV-1 CH0505TF.G458Y Env on Env-pseudotyped virus produced in 293S GnTI-/- cells (Man5-enrichment) (HIV-1); assay: cell-based or functional assay

Substance: CH103 Fab
- Fabs bound per trimer (Fab per trimer) [1]: 3

Substance: CH103 lineage unmutated common ancestor (UCA) (antibody)
- log AUC [2]: 3.5 log AUC
- log AUC (CH505 M11 gp120 (HIV-1)): 2.6 log AUC
- log AUC [3]: 0.3 log AUC
- fold improvement of the off-rate against CH505 TF gp120 [4]: 10 fold
- Kd [5]: 200 nM

Substance: CH235.12 (antibody)
- IC50 (µg/ml) in TZM-bl [6]: 0.09 µg/mL
- IC50 (µg/ml) in TZM-bl [7]: 0.66 µg/mL
- IC50 (µg/ml) in TZM-bl [8]: 0.014 µg/mL
- IC50 (µg/ml) in TZM-bl [9]: 0.015 µg/mL
- IC50 (µg/ml) in TZM-bl [10]: 0.07 µg/mL
- IC50 (µg/ml) in TZM-bl [11]: 0.008 µg/mL
- IC50 (µg/ml) in TZM-bl [12]: 0.1 µg/mL
- IC50 (µg/ml) in TZM-bl [13]: 1.08 µg/mL
- IC50 (µg/ml) in TZM-bl [14]: 0.001 µg/mL
- IC50 (µg/ml) in TZM-bl [15]: > 25 µg/mL
- IC50 (µg/ml) in TZM-bl [16]: 24.2 µg/mL
- IC50 (µg/ml) in TZM-bl [17]: 0.003 µg/mL
- IC50 (µg/ml) in TZM-bl [18]: 0.26 µg/mL
- IC50 (µg/ml) in TZM-bl cells [19]: < 0.005 µg/mL
- IC50 (µg/ml) in TZM-bl [20]: 0.002 µg/mL
- IC50 (µg/ml) in TZM-bl [21]: > 25 µg/mL
- IC50 (µg/ml) in TZM-bl [22]: 0.003 µg/mL
- IC50 (µg/ml) in TZM-bl [23]: 0.04 µg/mL
- IC50 (µg/ml) in TZM-bl cells [24]: < 0.005 µg/mL
- IC50 (µg/ml) in TZM-bl [25]: 0.005 µg/mL
- IC50 (µg/ml) in TZM-bl [26]: 0.003 µg/mL
- IC50 (µg/ml) in TZM-bl [27]: 0.001 µg/mL
- IC50 (µg/ml) in TZM-bl [28]: 0.001 µg/mL
- IC50 (µg/ml) in TZM-bl [29]: 0.01 µg/mL
- IC50 (µg/ml) in TZM-bl [30]: 8.95 µg/mL
- IC50 (µg/ml) in TZM-bl [31]: 0.04 µg/mL
- IC50 (µg/ml) in TZM-bl [32]: 0.06 µg/mL
- IC50 (µg/ml) in TZM-bl [33]: 0.01 µg/mL
- IC50 (µg/ml) in TZM-bl [34]: 0.02 µg/mL
- IC50 (µg/ml) in TZM-bl [35]: 0.03 µg/mL
- IC50 (µg/ml) in TZM-bl [36]: 0.01 µg/mL
- IC50 (µg/ml) in TZM-bl [37]: 0.02 µg/mL
- IC50 (µg/ml) in TZM-bl [38]: 0.04 µg/mL
- IC50 (µg/ml) in TZM-bl [39]: < 0.02 µg/mL
